Tests used:
Settings in all cases: 20 nM; 72 h
[1] = system: MCF10A; experiment: 5+ nucleoli phenotype percent effect (relative to siNT 0% and siKIF11 100%); higher = more cells with five or more nucleoli
Description: (§1)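 After 72 h, cells were fixed and stained with Hoechst and anti-fibrillarin, and nucleoli per nucleus were counted with CellProfiler. Values are plate-adjusted percent effect for the one-nucleolus and 5+ nucleoli phenotypes, normalised to siNT (0%) and to the positive controls siNOL11 or siKIF11 (100%), as the mean of biological triplicates. Percent viability is the nuclei count relative to siNT.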

[2] = system: MCF10A; experiment: percent viability (nuclei count relative to siNT); higher = more viable cells
Description: as §1

[3] = system: MCF10A; experiment: one-nucleolus phenotype percent effect (relative to siNT 0% and siNOL11 100%); higher = more cells with one nucleolus (ribosome biogenesis inhibition)
Description: as §1

UGGUGGGUGGGGAGGAGAAGUGC [hsa-miR-6769b-5p]
5+ nucleoli phenotype percent effect [1]: -22.4%
percent viability [2]: 18.8%
one-nucleolus phenotype percent effect [3]: 23.2%

UCUCAGGAGUAAAGACAGAGUU [hsa-miR-3664-3p]
5+ nucleoli phenotype percent effect [1]: 17.2%
percent viability [2]: 86.7%
one-nucleolus phenotype percent effect [3]: -19.4%

AGGGGGAAAGUUCUAUAGUCC [hsa-miR-625-5p]
5+ nucleoli phenotype percent effect [1]: -16.9%
percent viability [2]: 12.6%
one-nucleolus phenotype percent effect [3]: 21.3%

AUCGUGCAUCCUUUUAGAGUGU [hsa-miR-517c-3p]
5+ nucleoli phenotype percent effect [1]: -11.3%
percent viability [2]: 41.6%
one-nucleolus phenotype percent effect [3]: 11.8%

UGGGGGAGUGCAGUGAUUGUGG [hsa-miR-5698]
5+ nucleoli phenotype percent effect [1]: 43.2%
percent viability [2]: 161%
one-nucleolus phenotype percent effect [3]: -25.1%

UGGGGACGUAGCUGGCCAGACAG [hsa-miR-3191-3p]
5+ nucleoli phenotype percent effect [1]: 4.11%
percent viability [2]: 26.7%
one-nucleolus phenotype percent effect [3]: 32.8%

UUGAAUUCUUGGCCUUAAGUGAU [hsa-miR-4452]
5+ nucleoli phenotype percent effect [1]: -9.56%
percent viability [2]: 42.1%
one-nucleolus phenotype percent effect [3]: -19.4%

GGGAAAAGGAAGGGGGAGGA [hsa-miR-6124]
5+ nucleoli phenotype percent effect [1]: 53.1%
percent viability [2]: 180%
one-nucleolus phenotype percent effect [3]: -29.7%

AGCAGCAUUGUACAGGGCUAUCA [hsa-miR-107]
5+ nucleoli phenotype percent effect [1]: -26.1%
percent viability [2]: 22.7%
one-nucleolus phenotype percent effect [3]: 29.9%

UCCUUUGCCUAUUCUAUUUAAG [hsa-miR-3121-5p]
5+ nucleoli phenotype percent effect [1]: 17%
percent viability [2]: 56.5%
one-nucleolus phenotype percent effect [3]: -3.46%

UUUUGCGAUGUGUUCCUAAUAU [hsa-miR-450a-5p]
5+ nucleoli phenotype percent effect [1]: 13.7%
percent viability [2]: 65.3%
one-nucleolus phenotype percent effect [3]: 3.94%

ACUGGGCAGGGCUGUGGUGAGU [hsa-miR-6860]
5+ nucleoli phenotype percent effect [1]: -5.42%
percent viability [2]: 50.7%
one-nucleolus phenotype percent effect [3]: -5.92%

UGAGUGCCGGUGCCUGCCCUG [hsa-miR-1909-5p]
5+ nucleoli phenotype percent effect [1]: -15.5%
percent viability [2]: 46.8%
one-nucleolus phenotype percent effect [3]: 18.8%

UCAGCAAACAUUUAUUGUGUGC [hsa-miR-545-3p]
5+ nucleoli phenotype percent effect [1]: 27.8%
percent viability [2]: 124%
one-nucleolus phenotype percent effect [3]: -21.8%

AAGGCAGGGCCCCCGCUCCCC [hsa-miR-940]
5+ nucleoli phenotype percent effect [1]: -29.5%
percent viability [2]: 12.8%
one-nucleolus phenotype percent effect [3]: 45.5%

CAAUCACUAACUCCACUGCCAU [hsa-miR-34b-3p]
5+ nucleoli phenotype percent effect [1]: 11%
percent viability [2]: 50.1%
one-nucleolus phenotype percent effect [3]: -6.72%

CAGAAGGGGAGUUGGGAGCAGA [hsa-miR-3154]
5+ nucleoli phenotype percent effect [1]: -26.4%
percent viability [2]: 17.4%
one-nucleolus phenotype percent effect [3]: 46.1%

UCGUUUGCCUUUUUCUGCUU [hsa-miR-1282]
5+ nucleoli phenotype percent effect [1]: 5.62%
percent viability [2]: 84.2%
one-nucleolus phenotype percent effect [3]: -8.15%

UCAGAUGAUCUAAAGGCCUAUA [hsa-miR-1245b-3p]
5+ nucleoli phenotype percent effect [1]: -4.77%
percent viability [2]: 34.5%
one-nucleolus phenotype percent effect [3]: 9.29%

AAAAGUAAUUGUGGAUUUUGCU [hsa-miR-548ab]
5+ nucleoli phenotype percent effect [1]: 30.5%
percent viability [2]: 67.8%
one-nucleolus phenotype percent effect [3]: -19.3%

UCUCUGGUCUUUCCUUGACAG [hsa-miR-6764-3p]
5+ nucleoli phenotype percent effect [1]: 17.2%
percent viability [2]: 27.5%
one-nucleolus phenotype percent effect [3]: 0.623%

CCCCGGUGUUGGGGCGCGUCUGC [hsa-miR-4783-3p]
5+ nucleoli phenotype percent effect [1]: 13.9%
percent viability [2]: 49.5%
one-nucleolus phenotype percent effect [3]: -13%

GCUGGGAUUACAGGCAUGAGCC [hsa-miR-619-5p]
5+ nucleoli phenotype percent effect [1]: 19%
percent viability [2]: 50%
one-nucleolus phenotype percent effect [3]: -9.05%

GGAUUCCUGGAAAUACUGUUCU [hsa-miR-145-3p]
5+ nucleoli phenotype percent effect [1]: -19.5%
percent viability [2]: 55.6%
one-nucleolus phenotype percent effect [3]: 9.95%

UUCACAGGGAGGUGUCAU [hsa-miR-513a-5p]
5+ nucleoli phenotype percent effect [1]: -25.5%
percent viability [2]: 68%
one-nucleolus phenotype percent effect [3]: 24.8%

CCAGACAGAAUUCUAUGCACUUUC [hsa-miR-1324]
5+ nucleoli phenotype percent effect [1]: 49.8%
percent viability [2]: 120%
one-nucleolus phenotype percent effect [3]: -11%

CACUGUGGGUACAUGCU [hsa-miR-4318]
5+ nucleoli phenotype percent effect [1]: -33%
percent viability [2]: 35.1%
one-nucleolus phenotype percent effect [3]: 65.2%

AAAUAUGAUGAAACUCACAGCUGAG [hsa-miR-4517]
5+ nucleoli phenotype percent effect [1]: 12.3%
percent viability [2]: 24%
one-nucleolus phenotype percent effect [3]: 0.779%

AAAGUUCUGAGACACUCCGACU [hsa-miR-148a-5p]
5+ nucleoli phenotype percent effect [1]: 9.44%
percent viability [2]: 89%
one-nucleolus phenotype percent effect [3]: -5.53%

ACCAGCGCGUUUUCAGUUUCAU [hsa-miR-4738-5p]
5+ nucleoli phenotype percent effect [1]: 13.4%
percent viability [2]: 51.5%
one-nucleolus phenotype percent effect [3]: 7.61%

AGCAAAAUAAGCAAAUGGAAAA [hsa-miR-1468-3p]
5+ nucleoli phenotype percent effect [1]: 29.6%
percent viability [2]: 128%
one-nucleolus phenotype percent effect [3]: -19.1%

AUAAUACAUGGUUAACCUCUUU [hsa-miR-655]
5+ nucleoli phenotype percent effect [1]: -21.2%
percent viability [2]: 118%
one-nucleolus phenotype percent effect [3]: 4.84%

AUUGACACUUCUGUGAGUAGA [hsa-miR-514a-3p]
5+ nucleoli phenotype percent effect [1]: -5.72%
percent viability [2]: 56.9%
one-nucleolus phenotype percent effect [3]: 13.2%

AGUGGAUGAUGGAGACUCGGUAC [hsa-miR-3691-5p]
5+ nucleoli phenotype percent effect [1]: -12.7%
percent viability [2]: 13.1%
one-nucleolus phenotype percent effect [3]: 34.9%

UCAAGUAGUUUCAUGAUAAAGG [hsa-miR-5697]
5+ nucleoli phenotype percent effect [1]: 12.5%
percent viability [2]: 118%
one-nucleolus phenotype percent effect [3]: -14.6%

UGAGGGGUUUGGAAUGGGAUGG [hsa-miR-5194]
5+ nucleoli phenotype percent effect [1]: 21%
percent viability [2]: 14.8%
one-nucleolus phenotype percent effect [3]: 13.7%

CCAGUUACCGCUUCCGCUACCGC [hsa-miR-935]
5+ nucleoli phenotype percent effect [1]: -23.4%
percent viability [2]: 59%
one-nucleolus phenotype percent effect [3]: 15.8%

CUGACCUAUGAAUUGACAGCC [hsa-miR-192-5p]
5+ nucleoli phenotype percent effect [1]: -30%
percent viability [2]: 28.2%
one-nucleolus phenotype percent effect [3]: 57.2%

UCGGGGCAUGGGGGAGGGAGGCUGG [hsa-miR-6775-5p]
5+ nucleoli phenotype percent effect [1]: 35.1%
percent viability [2]: 57.8%
one-nucleolus phenotype percent effect [3]: -21.8%

UAGCACCAUUUGAAAUCAGUGUU [hsa-miR-29b-3p]
5+ nucleoli phenotype percent effect [1]: 20.2%
percent viability [2]: 63.7%
one-nucleolus phenotype percent effect [3]: -20.6%

UGGGGGGACAGGAUGAGAGGCUGU [hsa-miR-6795-5p]
5+ nucleoli phenotype percent effect [1]: -6.99%
percent viability [2]: 16.8%
one-nucleolus phenotype percent effect [3]: 28.6%

AGGGAAGGGGACGAGGGUUGGG [hsa-miR-5196-5p]
5+ nucleoli phenotype percent effect [1]: 4.34%
percent viability [2]: 40.5%
one-nucleolus phenotype percent effect [3]: 5.32%

CUCCGGGACGGCUGGGC [hsa-miR-4497]
5+ nucleoli phenotype percent effect [1]: 0.934%
percent viability [2]: 67.6%
one-nucleolus phenotype percent effect [3]: -8.42%

GAGGGCAGAGCCAGCUUCCUGA [hsa-miR-7843-5p]
5+ nucleoli phenotype percent effect [1]: 13.7%
percent viability [2]: 32.5%
one-nucleolus phenotype percent effect [3]: 16.5%

AACUCGUGUUCAAAGCCUUUAG [hsa-miR-4636]
5+ nucleoli phenotype percent effect [1]: 12.8%
percent viability [2]: 53.6%
one-nucleolus phenotype percent effect [3]: 8.89%

GGGGAAAGCGAGUAGGGACAUUU [hsa-miR-3153]
5+ nucleoli phenotype percent effect [1]: 13.5%
percent viability [2]: 55.6%
one-nucleolus phenotype percent effect [3]: -1%

CACAUAUGAAGUGAGCCAGCAC [hsa-miR-5580-3p]
5+ nucleoli phenotype percent effect [1]: -31.6%
percent viability [2]: 56.3%
one-nucleolus phenotype percent effect [3]: -6.62%

AUUCUUCCUGCCCUGGCUCCAU [hsa-miR-6875-3p]
5+ nucleoli phenotype percent effect [1]: -0.842%
percent viability [2]: 29.5%
one-nucleolus phenotype percent effect [3]: -4.69%

AUCCUCUUUCGUCCUUCCCACU [hsa-miR-6881-3p]
5+ nucleoli phenotype percent effect [1]: -36.4%
percent viability [2]: 49.2%
one-nucleolus phenotype percent effect [3]: 22.7%

AAGAGGAAGAAAUGGCUGGUUCUCAG [hsa-miR-3916]
5+ nucleoli phenotype percent effect [1]: -13.2%
percent viability [2]: 14%
one-nucleolus phenotype percent effect [3]: -5.24%

UUUGUAUGGAUAUGUGUGUGUAU [hsa-miR-3149]
5+ nucleoli phenotype percent effect [1]: -7.06%
percent viability [2]: 37.6%
one-nucleolus phenotype percent effect [3]: 2.3%

GAUUUCAGUGGAGUGAAGUUC [hsa-miR-205-3p]
5+ nucleoli phenotype percent effect [1]: 51.7%
percent viability [2]: 133%
one-nucleolus phenotype percent effect [3]: -30.2%

AGGAGGGAGGAGAUGGGCCAAGUU [hsa-miR-1249-5p]
5+ nucleoli phenotype percent effect [1]: -22.4%
percent viability [2]: 11.3%
one-nucleolus phenotype percent effect [3]: 45.9%

UUGGAGGCGUGGGUUUU [hsa-miR-4443]
5+ nucleoli phenotype percent effect [1]: -29.8%
percent viability [2]: 20.9%
one-nucleolus phenotype percent effect [3]: 61.2%

UUCAGAUCCCAGCGGUGCCUCU [hsa-miR-5100]
5+ nucleoli phenotype percent effect [1]: -27.6%
percent viability [2]: 39.2%
one-nucleolus phenotype percent effect [3]: 14.1%

UUGGGGUUUGGGGUGCAGACAUUGC [hsa-miR-6855-5p]
5+ nucleoli phenotype percent effect [1]: -2.12%
percent viability [2]: 9.03%
one-nucleolus phenotype percent effect [3]: 34.4%

GCAGCAUUCAUGUCCC [hsa-miR-4310]
5+ nucleoli phenotype percent effect [1]: 17.2%
percent viability [2]: 62.6%
one-nucleolus phenotype percent effect [3]: -11%

UCUGUGCCCCUACUUCCCAG [hsa-miR-6889-3p]
5+ nucleoli phenotype percent effect [1]: 16.2%
percent viability [2]: 63%
one-nucleolus phenotype percent effect [3]: -15.5%

AGGAGGCAGCGCUCUCAGGAC [hsa-miR-650]
5+ nucleoli phenotype percent effect [1]: -3.4%
percent viability [2]: 33.8%
one-nucleolus phenotype percent effect [3]: 23.2%

— the supplement of paper PMC10899765
